From US20240052047A1 (Pfizer, published 2024)

Target: human IL27 receptor (IL27RA/gp130 heterodimer) on human cells (human, UniProt Q6UWB1 33-636; P40189 23-918)
Experiment: cell-based or functional assay

B1: mAb-4894 anti-IL27RA/gp130 bispecific antibody (bispecific antibody, human IgG1)
heavy 1: EVQLVESGGGLVQPGGSLRLSCAASGFTFEYFGLQWVRQAPGKGLEWIGYTSSGGNYEYYEETLKGRFTISRDNAKNSLYLQMNSLRAEDTAVYYCARTKTGDYWGQGTLVTVSSASTKGPSVFPLAPSSKSTSGGTAALGCLVKDYFPEPVTVSWNSGALTSGVHTFPAVLQSSGLYSLSSVVTVPSSSLGTQTYICNVNHKPSNTKVDKKVEPKSCEKTHTCPPCPAPEAAGAPSVFLFPPKPKDTLMISRTPEVTCVVVDVSHEDPEVKFNWYVDGVEVHNAKTKPREEQYNSTYRVVSVLTVLHQDWLNGKEYKCKVSNKALPAPIEKTISKAKGQPREPQVYTLPPSREEMTKNQVSLTCEVKGFYPSDIAVEWESNGQPENNYKTTPPVLDSDGSFFLYSKLTVDKSRWQQGNVFSCSVMHEALHNHYTQKSLSLSPGK
light 1: DIQMTQSPSSLSASVGDRVTITCRASQDIGNSLTWYQQKPGKAPKRVIFGATGLAAGVPSRFSGSGSGTDFTLTISSLQPEDFATYYCLQSKQYPYTFGQGTKLEIKRTVAAPSVFIFPPSDEQLKSGTASVVCLLNNFYPREAKVQWKVDNALQSGNSQESVTEQDSKDSTYSLSSTLTLSKADYEKHKVYACEVTHQGLSSPVTKSFNRGEC
heavy 2: QVQLVQSGAEVKKPGSSVKVSCKVSGGSISSYYWSWVRQAPGQGLEWIGRIYITGNTNYNPSLKDRVTMTVDTSTSTHYMELSSLRSEDTAVYYCAREGPKLGIFDYWGQGTLVTVSSASTKGPSVFPLAPSSKSTSGGTAALGCLVKDYFPEPVTVSWNSGALTSGVHTFPAVLQSSGLYSLSSVVTVPSSSLGTQTYICNVNHKPSNTKVDKKVEPKSCRKTHTCPPCPAPEAAGAPSVFLFPPKPKDTLMISRTPEVTCVVVDVSHEDPEVKFNWYVDGVEVHNAKTKPREEQYNSTYRVVSVLTVLHQDWLNGKEYKCKVSNKALPAPIEKTISKAKGQPREPQVYTLPPSREEMTKNQVSLTCLVKGFYPSDIAVEWESNGQPENNYKTTPPVLDSDGSFFLYSRLTVDKSRWQQGNVFSCSVMHEALHNHYTQKSLSLSPGK
light 2: DIQMTQSPSSLSASVGDRVTITCRASQSVSSSYLAWYQQKPGKAPKLLIYGTESRATGVPSRFSGSGSGTDFTLTISSLQPEDFATYYCQQYGGYPTFGGGTKVEIKRTVAAPSVFIFPPSDEQLKSGTASVVCLLNNFYPREAKVQWKVDNALQSGNSQESVTEQDSKDSTYSLSSTLTLSKADYEKHKVYACEVTHQGLSSPVTKSFNRGEC
notes: Human IgG1 EE/RR heterodimer with L234A, L235A, G237A (EU); also called GBT-IL27R-4894; GBT-IL-27R-4894
IDO1 in CD14+ monocytes EC50: 8 pM | PD-L1 in CD14+ monocytes EC50 (human whole blood): 2 pM | pSTAT1 in CD3+ T cells EC50 (human whole blood): 83 pM
